Read-outs that look alike come from different tables or passages of the source. A value given as a limit tells only on which side of the number the result lay.

These results are taken from US20110059504A1 (GENERAL HOSPITAL, published 2011).

Experiment [1] addresses chicken lysozyme (chicken, UniProt P00698 19-147). The experiment is described as follows: phage ELISA on target-coated Maxisorp wells, anti-M13 pVIII-HRP. On the procedure:
(§1) An Elisa screening was performed after four rounds of selection to identify binding clones. Randomly picked phagemid clones were incubated with target-coated or buffer-coated Maxisorp wells at room temperature for 1 hour. Unbound phage was removed and the wells were washed eight times with PBS pH 7.4, 0.05% Tween-20. Binding was determined with an anti-M13 pVIII antibody-HRP conjugate (GE). […] Varying levels of binding to targets and the Maxisorp surface were also observed in other clones.
On the technique in general: An ELISA detects its analyte on a solid surface through an enzyme-linked reagent.

The target in experiment [2] is T1, human β-NGF (human, UniProt P01138 122-241, biotinylated (site not stated)).
T1 construct: also called biotinylated human β-NGF; nerve growth factor
The experiment can be described thus: radioactive equilibrium binding assay. On the procedure: (§2) Affinities of selected F13β2 binders to biotinylated myostatin were determined in radioactive equilibrium binding assay (FIGS. 11A and 11B; Table 3). ³⁵S-labeled binder proteins from selection pools and single clones were produced in vitro in a rabbit reticulocyte lysate translation kit (Ambion) and purified on M2-agarose (Sigma). Varying concentrations of biotinylated human myostatin (0-100 nM) or other proteins (protein 1: 100 nM; peptide 1: 250 nM; protein 2: 50 nM) were incubated with a constant concentration of the purified binder protein (1 or 2 nM) at 30° C. for 30 min in buffer B (1×PBS, 0.02% Triton X-100 [pH 7.4]). The receptor-binder complexes were captured by using 25 μl of M280 or Protein A (Dynal) (protein 2) magnetic beads for 10 min at room temperature on a Kingfisher instrument (Thermo Fisher Scientific). The beads were washed five times with 100 μl buffer B, and the amount of ³⁵S-methionine remained on the beads was measured by scintillation counting. Data were analyzed by using the GraphPad Prism software (GraphPad Software, Inc., San Diego, Calif.), fitted with a one-site, nonlinear binding equation. For inhibition assay the binding of ³⁵S-labeled proteins to 20 or 25 nM of biotinylated human myostatin was performed in the presence of varying concentrations of inhibitor (human activin receptor IIB/Fc chimera (R&D Systems, Minneapolis, Minn.) (0-250 nM); protein 1 (100 nM), peptide 1 (250 nM), protein 2 (50 nM); proteins, produced in E. coli, M17, M7, M29, M21, M1-1, WT F13β2 (500 nM)).
Selected F13β2 binders were tested for binding to biotinylated β-NGF in radioactive equilibrium binding assay (FIGS. 21A and 21B; Table 4) according to the procedure described for myostatin binders. NGF at concentrations up to 100 nM was incubated with a constant concentration of the purified binder protein (1 or 2 nM) at 30° C. for 1 hour. Affinities to human β-NGF differed greatly between various binders.

The target of experiment [3] is T2, streptavidin beads (M-280 beads) (UniProt P22629 37-163, limits assumed).
T2 construct: Capture beads used as negative control
The experiment is described as follows: radioactive equilibrium binding assay.

Experiment [4] deals with T1, human β-NGF. The experiment can be described thus: radioactive equilibrium binding assay. The source holds these as a separate data set.
In experiment [5] the target is T3, FcεRI-MBP (UniProt P12319 26-205).
T3 construct: Produced in E. coli; order of the two parts is printed both ways (mbp-FcεRI, FcεRI-MBP); also called mbp-FcεRI; mbpFcεRI
T3 sequence (looked up): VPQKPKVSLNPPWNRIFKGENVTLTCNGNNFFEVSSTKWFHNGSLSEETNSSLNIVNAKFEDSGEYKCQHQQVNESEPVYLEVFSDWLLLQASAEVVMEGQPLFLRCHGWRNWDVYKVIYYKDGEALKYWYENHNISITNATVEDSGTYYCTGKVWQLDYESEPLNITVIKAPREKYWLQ
The experiment can be described thus: phage ELISA on target-coated Maxisorp wells, anti-M13 pVIII-HRP. On the procedure:
as §1

The target in experiment [6] is T4, human myostatin (human, UniProt O14793 267-375, biotinylated in selections and radioactive assays (site not stated)).
T4 construct: Phage ELISA used both unbiotinylated and biotinylated myostatin; also called biotinylated human myostatin; myostatin-biotin
T4 sequence (looked up): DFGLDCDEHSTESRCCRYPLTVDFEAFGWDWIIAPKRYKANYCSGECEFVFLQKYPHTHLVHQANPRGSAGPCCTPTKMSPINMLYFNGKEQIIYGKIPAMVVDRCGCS
The experiment is described as follows: radioactive equilibrium binding assay. On the procedure:
as §2

T1 sequence (P01138 122-241 limits assumed): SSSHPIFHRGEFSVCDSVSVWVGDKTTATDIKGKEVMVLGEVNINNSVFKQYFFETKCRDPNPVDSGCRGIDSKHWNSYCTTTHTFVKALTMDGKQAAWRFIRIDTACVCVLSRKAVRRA
Sequence of chicken lysozyme (P00698 19-147 limits assumed): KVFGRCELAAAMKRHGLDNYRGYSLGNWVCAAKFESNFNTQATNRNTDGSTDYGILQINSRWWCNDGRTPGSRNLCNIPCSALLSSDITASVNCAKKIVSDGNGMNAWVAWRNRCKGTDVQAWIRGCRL
T2 sequence (P22629 37-163 limits assumed): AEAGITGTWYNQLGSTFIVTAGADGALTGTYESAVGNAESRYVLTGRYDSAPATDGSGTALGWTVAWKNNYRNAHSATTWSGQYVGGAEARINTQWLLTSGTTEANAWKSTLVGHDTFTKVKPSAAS

B1: FG6 phage clone ANPIKHM / RPTAG / LGVLRR (designed binder)
chain: TIPEIIIKVRGTQVVGSDMTVIVEFANPIKHMLRNVWVHLDGPGVTRPMKKMFREIRPTAGVQWEEVVRPWVSGHRKLIASMSLGVLRRVYGELDVQIQRR
notes: not shown: 6-his, myc tag and C-terminal domain of M13 pIII (phage display fusion)
Turning to B1, the “Target Binding” value in experiment [1] is 2.83.

B2: FG6 phage clone RRPTKGN / GPGQV / LGMLRR (designed binder)
chain: TIPEIIIKVRGTQVVGSDMTVIVEFRRPTKGNLRNVWVHLDGPGVTRPMKKMFREIGPGQVVQWEEVVRPWVSGHRKLIASMSLGMLRRVYGELDVQIQRR
notes: as for B1
For the molecule B2, in experiment [1], the “Target Binding” value was 2.45.

B3: 61362-C6 (designed binder)
chain: MTIPEIIIKVRGTQVVGSDMTVIVEFTNPLNEPLLFVWVHLDGPGVTRPMKKMFRIISPHATVQWEEVVRPWVSGHRKLIASMSIGFQAHVYGELDVQIQRRDYKDDDDK
notes: group N1
For orientation: Kd means the concentration at which binding is half-saturated. With B3, in experiment [2], the B max is 5.5% and the Kd amounted to 24 nM. Moreover, the binding result in experiment [3] is “no binding”.

B4: 61363-C1 (G17D) (designed binder)
chain: MTIPEIIIKVRGTQVVDSDMTVIVEFTDTVLEILRTVWVHLDGPGVTRPMKKMFPHIRPKVTVQWEEVVRPWVSGHRKLIASMLIASLRHVYGELDVQIQRRDYKDDDDK
notes: group N3; G17D
With B4, in experiment [2], the B max turned out to be 1.8% and the Kd was 2.8 nM. Further, in experiment [3], the binding result is on record as “no binding”.

B5: 61363-C12 (G45E) (designed binder)
chain: MTIPEIIIKVRGTQVVGSDMTVIVEFTNPLEENLYNVWVHLDGPEVTRPMKKMFYQISTNIPVQWEEVVRPWVSGHRKLIASMGAHTKDHVYGELDVQIQRRDYKDDDDK
notes: group N4; G45E
B5: in experiment [2], the B max was 33.6% and the Kd came to 36 nM. The Kd in experiment [4] was < 100 nM. In experiment [3], the binding result is reported as “no binding”.

B6: FG6+6 phage clone TNPLRGT / PPNVK / GLSTAGRWKRVR (designed binder)
chain: TIPEIIIKVRGTQVVGSDMTVIVEFTNPLRGTLRNVWVHLDGPGVTRPMKKMFREIPPNVKVQWEEVVRPWVSGHRKLIASMSGLSTAGRWKRVRVYGELDVQIQRR
notes: as for B1
For the molecule B6, the “Target Binding” value in experiment [5] was 4.

B7: 61362-F2 (designed binder)
chain: MTIPEIIIKVRGTQVVGSDMTVIVEFINTSNETLPSVWVHLDGPGVTRPMKKMFPEIPPNSSVQWEAWVSGHRKLIASMIRDSSRHVYGELDVQIQRRDYKDDDDK
notes: group N2; Δ67-70, P71A
B7: in experiment [2], the B max was 35.4% and the Kd turned out to be 62 nM. In experiment [4], the Kd was < 100 nM. The binding result in experiment [3] was “no binding”.

B8: 39908-E5 (designed binder)
chain: MTIPEIIIKVRGTQVVGSDMTVIVEFSNPFKETLRNVWVHLDGPGVTRPMKKMFSEIRPNSTVQWEEVVRPWVSGHRKLIARCSLSPWHVYGELDVQIQRRDYKDDDDK
notes: group M3-A50; ΔS82, M83R; also called M56 (clone ID)
For B8, in experiment [6], the B max amounted to 77.8% and the Kd was 21.9 nM.

B9: 39908-F5 (designed binder)
chain: MTIPEIIIKVRGTQVVGSDMTVIVEFTNPFKETLRNVWVHLDGPGVTRPMKKMFCEIRPNSIVQWEEVVRPWVSGHRKLIARCQLLPWHVYGELDVQIQRRDYKDDDDK
notes: group M3-A50; ΔS82, M83R; also called M16 (clone ID)
Take B9: in experiment [6], the B max was 67.2% and the Kd worked out at 27.1 nM.

B10: 39908-H4 (designed binder)
chain: MTIPEIIIKVRGTQVVGSDMTVIVEFSNPFKETLRNVWVHLDGPGVTRPMKKMFRDIRPKTKVQWEEVVRPWVSGHRKLIARCQLLPWHVYGELDVQIQRRDYKDDDDK
notes: group M3-A50; ΔS82, M83R; also called M015 (clone ID)
Regarding B10, in experiment [6], the B max worked out at 68.6% and the Kd was 15.8 nM.

B11: 61363-H1 (V15A) (designed binder)
chain: MTIPEIIIKVRGTQAVGSDMTVIVEFTNPLKETLYNVWVHLDGPGVTRPMKKMFWEIRTNHPVQWEEVVRPWVSGHRKLIASMSSNSRDHVYGELDVQIQRRDYKDDDDK
notes: group N4; V15A
On to B11, for which the B max in experiment [2] turned out to be 8.4%. The values for the Kd in experiment [2] and in experiment [4] were 22.9 nM and < 100 nM, respectively. For the same molecule, in experiment [3], the binding result is “no binding”.

B12: 39633-C5 (designed binder)
chain: MTIPEIIIKVRGTQVVGSDMTVIVEFTNPFKETLRSVWVHLDGPGVTRPMKKMFRVIPPKTTVQWEEVVRPWVSGHRKLIASMRTQYLIHLYGELDVQIQRRDYKDDDDK
notes: group M1-A50; V91L; also called M34 (clone ID)
As for B12, in experiment [6], the B max was found to be 93% and the Kd was 30.8 nM.

B13: 39633-D5 (designed binder)
chain: MTIPEIIIKVRGTQVVGSDMTVIVEFTNPFKETLRSVWVHLDGPGVTRPMKKMFREIPPKTTVQWEEVVRPWVSGHRKLIASMCEPSLDHVYGELDVQIQRRDYKDDDDK
notes: group M4-A50; also called 39633-D5/yes
On to B13, for which, in experiment [6], the B max worked out at 6.91% and the Kd amounted to 8.69 nM.

B14: 39908-F8 (K52R) (designed binder)
chain: MTIPEIIIKVRGTQVVGSDMTVIVEFTNPFKETLRSVWVHLDGPGVTRPMKRMFREIPPETTVQWEEVVRPWVSGHRKLIASMRTQYLIHLYGELDVQIQRRDYKDDDDK
notes: group M1-A50; V91L, K52R
In the case of B14, in experiment [6], the B max came to 45.7% and the Kd was found to be 36.6 nM.

B15: FG6 phage clone TIPHRGR / QPNVP / RAFLRH (designed binder)
chain: TIPEIIIKVRGTQVVGSDMTVIVEFTIPHRGRLRNVWVHLDGPGVTRPMKKMFREIQPNVPVQWEEVVRPWVSGHRKLIASMSRAFLRHVYGELDVQIQRR
notes: as for B1
Consider B15, for which the “Target Binding” value in experiment [1] was determined as 0.34.

B16: FG6+6 phage clone SNPLSRP / RPHSN / SRSLWLSIGKRH (designed binder)
chain: TIPEIIIKVRGTQVVGSDMTVIVEFSNPLSRPLRNVWVHLDGPGVTRPMKKMFREIRPHSNVQWEEVVRPWVSGHRKLIASMSSRSLWLSIGKRHVYGELDVQIQRR
notes: as for B1
As for B16, the “Target Binding” value in experiment [5] stood at 3.31.

B17: FG6+6 phage clone GNPTKET / RPRSM / YRPRRGGMRLRH (designed binder)
chain: TIPEIIIKVRGTQVVGSDMTVIVEFGNPTKETLRNVWVHLDGPGVTRPMKKMFREIRPRSMVQWEEVVRPWVSGHRKLIASMSYRPRRGGMRLRHVYGELDVQIQRR
notes: as for B1
For the molecule B17, in experiment [5], the “Target Binding” value stood at 4.

B18: 39908-E1 (designed binder)
chain: MTIPEIIIKVRGTQVVGSDMTVIVEFTNLWKEALRNVWMHLDGPGVTRPMKKMFREIATMSTVQWEEVVRPWVSGHRKLIASMTLRPWHVYGELDVQIQRRDYKDDDDK
notes: group M3-A50; FG loop -TLRPW; V39M; also called M04 (clone ID)
Turning to B18, in experiment [6], the B max is 40.2% and the Kd amounted to 14.8 nM.

B19: FG6+6 phage clone MNPRMEM / HPDSD / RLWTLWMARWRW (designed binder)
chain: TIPEIIIKVRGTQVVGSDMTVIVEFMNPRMEMLRNVWVHLDGPGVTRPMKKMFREIHPDSDVQWEEVVRPWVSGHRKLIASMSRLWTLWMARWRWVYGELDVQIQRR
notes: as for B1
For B19, in experiment [5], the “Target Binding” value was determined as 2.35.

B20: FG6 phage clone PSPFIEN / RPECI / RGWLRS (designed binder)
chain: TIPEIIIKVRGTQVVGSDMTVIVEFPSPFIENLRNVWVHLDGPGVTRPMKKMFREIRPECIVQWEEVVRPWVSGHRKLIASMSRGWLRSVYGELDVQIQRR
notes: as for B1
For the molecule B20, in experiment [1], the “Target Binding” value was 1.19.

B21: FG6+6 phage clone TNPRRRV / RPRST / WNSRWPAPTRRR (designed binder)
chain: TIPEIIIKVRGTQVVGSDMTVIVEFTNPRRRVLRNVWVHLDGPGVTRPMKKMFREIRPRSTVQWEEVVRPWVSGHRKLIASMSWNSRWPAPTRRRVYGELDVQIQRR
notes: as for B1
In the case of B21, the “Target Binding” value in experiment [5] turned out to be 1.73.

B22: FG6 phage clone INPLQVS / GPSSA / IYRYGL (designed binder)
chain: TIPEIIIKVRGTQVVGSDMTVIVEFINPLQVSLRNVWVHLDGPGVTRPMKKMFREIGPSSAVQWEEVVRPWVSGHRKLIASMSIYRYGLVYGELDVQIQRR
notes: as for B1
B22: in experiment [1], the “Target Binding” value was found to be 4.
